{
  "source": "paper PMC7552008",
  "key": {"[1]": {"target": "NS1 RBD H5N1 (Influenza A virus (H5N1; allele A)) (UniProt Q5H7J4)", "assay": "competition EMSA"}, "[2]": {"target": "T1, NS1 RBD H7N1 (Influenza A virus (avian H7N1; allele B)) (UniProt Q1PST0)", "T1 sequence": "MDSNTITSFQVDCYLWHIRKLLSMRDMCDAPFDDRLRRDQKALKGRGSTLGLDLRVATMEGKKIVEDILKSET", "assay": "competition EMSA"}, "[3]": {"target": "NS1 RBD H3N2 (Influenza A virus (H3N2)) (UniProt I6T1Z2)", "assay": "EMSA"}, "[4]": {"test_system": "NS1 RBD pdmH1N1 (Influenza A virus (pandemic H1N1))", "assay": "EMSA"}, "[5]": {"target": "NS1 RBD H5N1 (Influenza A virus (H5N1; allele A)) (UniProt Q5H7J4)", "assay": "EMSA"}, "[6]": {"target": "wild type H7N1 NS1 RBD (RNA-binding domain of influenza A virus non-structural protein NS1, residues 1-73) (influenza A virus (avian H7N1))", "assay": "crystal structure"}},
  "data": [
    {"substance": "AGACAGCAUUAUGCUGUCUUU / AGACAGCAUUAUGCUGUCUUU [ZKO]", "values": [
      {"measurement": "IC50", "setting": "[1]", "result": 90, "unit": "nM"}
    ]},
    {"substance": "CGCCUGUGUAGAGGUUACAGAGAUGUAACCUCACCACAGGCG [shDM05-GAGA]", "values": [
      {"measurement": "IC50", "setting": "[1]", "result": 100, "unit": "nM"}
    ]},
    {"substance": "GGUAACAACUCGUCAUAGGUCACUUGAUUGAAGUAUGACGGGCUGUUACC [DM03-midi]", "values": [
      {"measurement": "IC50", "setting": "[2]", "result": 2.8, "unit": "nM"},
      {"measurement": "IC50", "setting": "[1]", "result": 1.8, "unit": "nM"}
    ]},
    {"substance": "GGUAACCACAUGAGUUACAGCAAAAGACCUGUGUAACUCAUGCUGUUACC [DM01-midi]", "values": [
      {"measurement": "IC50", "setting": "[2]", "result": 2.7, "unit": "nM"},
      {"measurement": "IC50", "setting": "[1]", "result": 2.2, "unit": "nM"}
    ]},
    {"substance": "GGUAACUGUAGAGGAUGGAGAGAUCCAUCCUCUACAGUUACC [shDM06-GAGA]", "values": [
      {"measurement": "IC50", "setting": "[2]", "result": 0.85, "unit": "nM"},
      {"measurement": "IC50", "setting": "[1]", "result": 1.1, "unit": "nM"}
    ]},
    {"substance": "GGUAACUGUAGAGGUUACAGAGAUGUAACCUCACCAGUUACC [shDM03-GAGA]", "values": [
      {"measurement": "IC50", "setting": "[2]", "result": 0.64, "unit": "nM"},
      {"measurement": "IC50", "setting": "[1]", "result": 1.2, "unit": "nM"}
    ]},
    {"substance": "GGUAACUGUAGAGGUUACAGAGAUGUAACCUCUACAGUUACC [shDM02-GAGA]", "values": [
      {"measurement": "IC50", "setting": "[2]", "result": 0.24, "unit": "nM"},
      {"measurement": "IC50", "setting": "[1]", "result": 0.41, "unit": "nM"}
    ]},
    {"substance": "GGUAACUGUUACAGUUACC / GGUAACUGUUACAGUUACC [AWFC01]", "values": [
      {"measurement": "Kd", "setting": "[3]", "result": 3.7, "unit": "nM"},
      {"measurement": "Kd", "setting": "[4]", "result": 2.05, "unit": "nM"},
      {"measurement": "Kd", "setting": "[5]", "result": 0.98, "unit": "nM"},
      {"measurement": "IC50", "setting": "[1]", "result": 1, "unit": "nM"}
    ]},
    {"substance": "wild type H7N1 NS1 RBD (RNA-binding domain of influenza A virus non-structural protein NS1, residues 1-73) (domain or fragment)", "values": [
      {"measurement": "stoichiometry N", "setting": "[6]", "result": 2}
    ]}
  ]
}
